The target of experiment [1] is T1, human recombinant IL-15 (SinoBiological ref#10360-H07E) (human, UniProt P40933 49-162).
T1 construct: also called Human IL-15; IL-15 cytokine
Put plainly: ELISA, human IL-15 immobilized, anti-human IgG peroxidase detection. (In an ELISA, binding on a coated surface is turned into a signal by an enzyme label.)

Experiment [2] addresses T2, recombinant human PD-1 (Sino Biologicals, reference 10377-H08H) (human, UniProt Q15116 25-167).
T2 construct: Bought protein; also called recombinant hPDl; Human recombinant PD-1
The experiment is described as follows: ELISA, recombinant hPD1 immobilized, anti-human IgG peroxidase detection.

T1 sequence (P40933 49-162 limits assumed, stated change not applied): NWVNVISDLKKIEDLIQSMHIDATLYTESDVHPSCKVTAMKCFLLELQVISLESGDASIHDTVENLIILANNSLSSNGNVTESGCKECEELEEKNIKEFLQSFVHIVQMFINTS
T2 sequence (Q15116 25-167 limits assumed): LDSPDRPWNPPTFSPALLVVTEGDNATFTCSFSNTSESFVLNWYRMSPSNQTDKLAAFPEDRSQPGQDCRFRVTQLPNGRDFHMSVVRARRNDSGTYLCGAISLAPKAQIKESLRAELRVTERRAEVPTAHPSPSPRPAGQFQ

B1: anti-PD-1 antibody (antibody, human IgG4 S228P, kappa, V domains shown)
VH: QIQLVQSGSELKKPGASVKVSCKASGYTFTHYAMNWVRQAPGQGLEWMGWINTNTGEPTYAQGFTGRFVFSLDTSVSTAYLQISSLKAEDTAVYYCAREREPGMDNWGQGTLVTVSS
VL: DVVMTQSPLSLPVTLGQPASISCRSSQSLVHANTNTYLEWYQQRPGQSPRLLIYKVSNRFSGVPDRFSGSGSGTDFTLKISRVEAEDVGVYYCFQGTHVPNTFGQGTKLEIKR
notes: also called Anti-PDl; anti-PD-1 alone
As to B1, the binding result in experiment [1] is “no binding”; in experiment [2] it was “binds”.

For the origin of these results see patent WO2020165374A1 (dated 2020).
